Results as given in the supplement of paper PMC9732359.
± gives the uncertainty stated by the source.

Assay: protein stability index of a GFP-peptide fusion (yeast GPS) (PSI 1-4); higher = more stable; sorted into four equal gates, so the index is relative within each strain
How it was run: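 Yeast carrying a pooled library were grown to mid-log phase in leucine-free medium. Each library plasmid expresses Cherry and has a tiled 17-residue yeast protein peptide fused downstream of GFP. Cells were sorted into four equal gates by GFP/Cherry ratio, and plasmids from each gate were PCR-amplified, Illumina-sequenced and assigned to strains by barcode. Summing, across gates, the read frequency times the gate number gave each peptide's protein stability index.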

Sequence	protein stability index (doa10∆)	protein stability index (pdr5∆)	protein stability index (san1∆)	protein stability index (ubr1∆)
VLNMLYWVPDWDGVIPT [RPO21]	2.92 ± 0.067	2.63 ± 0.066	2.92 ± 0.055	3.16 ± 0.038
AGQIPTGWNAKTYGISD [FAS2]	1.68 ± 0.14	1.36 ± 0.12	1.66 ± 0.26	1.23 ± 0.09
VNSIALFVGTDRQLHEI [RPN14]	2.43 ± 0.079	2.46 ± 0.065	2.25 ± 0.067	2.67 ± 0.074
LIIRNDSLSGAVIAAIM [RPT3]	3.17 ± 0.11	3.09 ± 0.11	2.94 ± 0.21	3.12 ± 0.098
AVTEATSTNGDSENNEE [RGR1]	3.13 ± 0.14	3.3 ± 0.076	3.36 ± 0.068	3.08 ± 0.073
LLEKYNTNELKEVSSFL [MTR3]	3.05 ± 0.054	2.76 ± 0.054	3.23 ± 0.046	3.1 ± 0.053
VTNNVEEGEFIIDLYSL [TAF14]	3.38 ± 0.085	3.48 ± 0.083	3.58 ± 0.057	3.54 ± 0.06
KKVMPAIVVRQAKSWRR [RPL23A]	2.84 ± 0.14	2.85 ± 0.088	2.64 ± 0.16	2.99 ± 0.063
INKNSKIALREYINNCK [POP4]	2.04 ± 0.23	2.17 ± 0.098	2.42 ± 0.11	1.73 ± 0.14
EEVVSNDEGVWDLVDER [PRP8]	3.56 ± 0.073	3.47 ± 0.057	3.42 ± 0.07	3.49 ± 0.058
MEYLKSSKSLDLNTRIS [RPN5]	2.83 ± 0.057	1.69 ± 0.051	2.34 ± 0.063	2.61 ± 0.055
DLKASQRVCLRSDSYML [RPT6]	2.92 ± 0.1	3.08 ± 0.077	2.92 ± 0.075	2.82 ± 0.051
CRSCPYEFPIEGIEIYD [RPC11]	1.73 ± 0.078	2.32 ± 0.11	1.85 ± 0.11	2.08 ± 0.093
FPIALQWTGGRGGGHHS [FAS1]	2.52 ± 0.18	1.87 ± 0.23	–	–
LNAANYNIDANVIDTQR [ECM29]	–	2.37 ± 0.15	3.18 ± 0.12	2.85 ± 0.12
LVQLPKSAMDTFKSVSK [POP3]	2.65 ± 0.052	2.85 ± 0.044	2.75 ± 0.047	2.54 ± 0.036
SHEERIEAIDEYNKPNS [ISW2]	2.01 ± 0.063	2.12 ± 0.054	1.84 ± 0.076	2.94 ± 0.039
TFHDYDMVKLDINPPLV [RRP42]	2.94 ± 0.088	2.73 ± 0.061	2.87 ± 0.096	3.15 ± 0.037
KIEGVATPQDAQFYLGK [RPL33A]	2.78 ± 0.086	3.12 ± 0.07	3.3 ± 0.063	3.25 ± 0.083
QVRRDIPSAAFNFFEPI [YMR129W/POM152]	1.9 ± 0.036	2.23 ± 0.041	1.96 ± 0.049	2.15 ± 0.031
CLSPGAFLSKVPEFFQT [SRP14]	2.73 ± 0.098	2.44 ± 0.13	2.87 ± 0.17	2.6 ± 0.068
QVVVDAITNTGPREDTT [RPS5]	2.95 ± 0.064	2.95 ± 0.058	2.82 ± 0.064	2.73 ± 0.042
LTLKHRQNKVQHQRIVA [RPN10]	1.54 ± 0.071	1.97 ± 0.11	2.9 ± 0.25	1.84 ± 0.12
SANTNNTCTISTSKFES [SWP82]	2.59 ± 0.055	2.51 ± 0.07	2.43 ± 0.055	2.13 ± 0.04
GQQSVEGKRIAFGFVDR [RPO21]	3.25 ± 0.2	3.01 ± 0.2	3.44 ± 0.11	3.52 ± 0.14

Sequence	protein stability index (doa10∆)	protein stability index (pdr5∆)	protein stability index (san1∆)	protein stability index (ubr1∆)
KKWPQFYAAVQKNYADP [SIN4]	1.5 ± 0.07	2.09 ± 0.084	2.77 ± 0.13	2.18 ± 0.075
SMERKVQGAAPWDTSLE [MCD1]	3.5 ± 0.11	3.1 ± 0.089	3.25 ± 0.087	3.44 ± 0.16
TTLTIMRILPRETDPLV [RPT4]	2.63 ± 0.068	2.62 ± 0.057	2.73 ± 0.064	2.52 ± 0.039
IQTKEQVSINSNKILVY [YIL149C/MLP2]	2.21 ± 0.076	2.75 ± 0.17	1.85 ± 0.21	2.96 ± 0.15
DRKIQGWLGALTMANLP [ARP7]	2.8 ± 0.066	3 ± 0.063	2.65 ± 0.069	2.81 ± 0.045
DLKKKLNSLKDERSQGE [SMC4]	3.43 ± 0.14	3.16 ± 0.25	3.06 ± 0.16	3.71 ± 0.25
FDTSIKLDIISDPESER [RPN14]	2.7 ± 0.061	2.94 ± 0.082	2.59 ± 0.071	2.9 ± 0.068
DGKGAVYSFDPVGSYER [PRE7]	3.31 ± 0.18	2.57 ± 0.12	2.94 ± 0.15	3.27 ± 0.081
VDFDGLDIKRVGSENVE [SNF12]	3.3 ± 0.19	3.32 ± 0.14	3.49 ± 0.24	3.35 ± 0.1
ERDFYHSLREYINGKAT [RPO31]	2.58 ± 0.044	2.43 ± 0.044	2.9 ± 0.037	1.75 ± 0.023
NSIDVPIRINSTEEIEY [YMR129W/POM152]	1.76 ± 0.055	2.27 ± 0.058	2.01 ± 0.071	2.6 ± 0.034
NEKKTETNAKPFSFSSA [YLR335W/NUP2]	3.32 ± 0.11	3.28 ± 0.088	3.33 ± 0.041	3.36 ± 0.079
PLAAGNFVSEKGDLRRG [RPC53]	–	3.4 ± 0.19	3.31 ± 0.17	3.24 ± 0.11
KLNTLSEILSFDPVYTT [YML103C/NUP188]	2.54 ± 0.061	2.77 ± 0.067	2.85 ± 0.073	2.77 ± 0.078
KGAGLSMGTMICGYTRK [PRE2]	1.64 ± 0.16	1.27 ± 0.17	–	1.11 ± 0.17
NGGLIHVVTREKGPQVC [RPO21]	2.93 ± 0.14	3.09 ± 0.11	2.37 ± 0.13	2.96 ± 0.12
NEAALVVNITHHELVPK [RPB5]	2.93 ± 0.09	2.71 ± 0.06	3.14 ± 0.062	2.88 ± 0.081
GKGDNDNGLGPLKYAPH [SWI3]	2.69 ± 0.058	3.39 ± 0.12	2.85 ± 0.085	2.7 ± 0.052
GAGIQIIMQADLALKMG [FAS2]	1.84 ± 0.094	2.09 ± 0.065	1.73 ± 0.071	2.03 ± 0.051
PLPAVFSAPIRPDIVHT [RPL4A]	1.96 ± 0.04	2.35 ± 0.04	2.08 ± 0.06	2.13 ± 0.041
EPFNAGIKYHATPPLKR [SMC1]	3.05 ± 0.071	3.12 ± 0.071	2.79 ± 0.062	2.97 ± 0.045
KALPMLEQVEFEKNTIL [MED4]	3.02 ± 0.07	3.04 ± 0.083	2.65 ± 0.064	3.08 ± 0.083
TSIHSTISILAAPSGNY [RRP43]	1.59 ± 0.038	1.85 ± 0.033	1.97 ± 0.05	1.67 ± 0.029
HNSVKRYQIMLPEQLKS [SNM1]	1.16 ± 0.042	1.59 ± 0.052	1.44 ± 0.1	1.74 ± 0.041
DHVDGSSEFVSQDTKVI [RRP46]	2.64 ± 0.056	2.24 ± 0.053	2.44 ± 0.053	2.8 ± 0.053
